In paper PMC4690510, “Crystal structure of a novel two domain GH78 family α-rhamnosidase from Klebsiella oxytoca with rhamnose bound” (Proteins, 2015):

Tests used:
[1] = target: α-L-rhamnosidase from Klebsiella oxytoca (KoRha) (Klebsiella oxytoca KCTC 1686); test: dynamic light scattering; purified KoRha in solution, DynaPro-Titan instrument, 20°C; hydrodynamic radius 4.8 nm
purified protein = substrate: C[C@@H]1O[C@@H](Oc2ccc([N+](=O)[O-])cc2)[C@H](O)[C@H](O)[C@H]1O; test: purified protein; type: biochemical, Klebsiella oxytoca; settings: 20 mM MES pH 5.0, 10% DMSO in substrate solution

| stoichiometry N [1] | Molecule | Km (purified protein) [µM] | kcat (purified protein) [s⁻¹] |
| --- | --- | --- | --- |
| 2 | α-L-rhamnosidase from Klebsiella oxytoca (KoRha) (enzyme) |  |  |
|  | KoRha (Klebsiella oxytoca) (protein, synthetic codon-optimised gene in pET15b, E. coli BL21(DE3); residues 11-523 modelled) MSQAIQHNSQVMMTRHPNFLRTAEALRPALSRQAHPPIAVVEAHADAAALFGWRAEPVSTLAAFYQRELSSGDSVIIDFGSHYVGYLHFLCQSAGSPPDAPAHLQLTFGETLSEVCEPFSDYQGWLSSSWLQQQDLWLDVLPAEIDLPRRYCFRYLKVEVKAVSRKFRLQFTQIEVNAVTSASGACPAATTSDPQLRAIDNVAVLTLQNCMQEVFEDGPKRDRRLWLGDLRLQALVNDVTFARHDLVRRCLYLFAGHTREDGMVSANVFVQPDVIADDTFLFDYSLFFVDVLYNYLQSAEDMATARELWPTARRQVELALTRCDASGVVRDSDDWWVFIDWQASLNKQAAAQGVLIYCLQRAIWLAERFEPELAVSYRQRLQQLKSAALDALWDPQQGFYVSGARRQVSWASQIWLVLAEVGTPQQRREIMRNLEKNPPAVAMNTPYLRHHYIAALLQCGLRDEAIAQIKAYWGAMVDYGADTFWEIFDPAHPDFSPYGSKLINSYCHAWSCTPAWFIRQYGL | 210 ± 20 | 0.98 |
